According to patent US9114144B2, “Kallikrein-inhibitor therapies” (Dyax Corp., priority 2002, dated 2015):
Positions of bridges follow the written chain, without caps; N, C: chain ends. No end group written: not given here.

Columns and labels:
kallikrein = test: Kallikrein inhibitory activity in plasma and CSF of non-ischemic mice after iv treatment; format: in vivo
Method: […] analysis was performed to determine whether DX-88 was able to cross the blood-brain barrier. Non-ischemic mice were treated iv with saline or DX-88 (10 μg/mouse or 30 μg/mouse) and plasma was drawn 30 or 60 min after administration. Thirty minutes after DX-88 treatment, plasma kallikrein inhibitory activity was 2 and 4 times higher in mice treated with […], respectively.
The same dose of DX-88 was given at the beginning of ischemic period. Twenty four hours after ischemia, neurological deficits and infarct size were evaluated.

human plasma kallikrein = human plasma kallikrein (Homo sapiens, UniProt P03952); test: Kallikrein inhibition assay, Ki,app; format: biochemical; settings: fold higher than aprotinin
Method: The potency assay of KI polypeptides, such as PEP-1, described herein was a kinetic test, which measured fluorescence generation following the kallikrein-mediated cleavage of a substrate, […] amino methyl coumarin. A known amount of kallikrein was incubated with buffer, with a serially diluted KI polypeptide reference standard, or serially diluted KI polypeptide test samples. Each sample was run in triplicate. The substrate solution was added, and the plate read immediately using an excitation wavelength of 360 nm and an emission wavelength of 460 nm. At least two each of the reference standard and sample curves were required to have an R-squared value of ≧0.95 to be considered valid.

Chain of human plasma kallikrein (P03952 20-390 partner limits assumed): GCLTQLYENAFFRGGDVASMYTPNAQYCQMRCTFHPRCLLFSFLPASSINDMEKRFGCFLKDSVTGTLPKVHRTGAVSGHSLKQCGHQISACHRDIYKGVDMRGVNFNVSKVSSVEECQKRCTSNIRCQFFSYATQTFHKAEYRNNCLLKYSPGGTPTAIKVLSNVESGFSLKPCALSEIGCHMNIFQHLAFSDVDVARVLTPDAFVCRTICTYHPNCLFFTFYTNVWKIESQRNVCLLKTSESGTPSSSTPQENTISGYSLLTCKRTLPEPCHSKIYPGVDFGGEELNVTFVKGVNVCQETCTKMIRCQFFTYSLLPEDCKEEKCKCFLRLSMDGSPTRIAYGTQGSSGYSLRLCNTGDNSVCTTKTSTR
Chain of human plasma kallikrein (P03952 391-638 limits assumed): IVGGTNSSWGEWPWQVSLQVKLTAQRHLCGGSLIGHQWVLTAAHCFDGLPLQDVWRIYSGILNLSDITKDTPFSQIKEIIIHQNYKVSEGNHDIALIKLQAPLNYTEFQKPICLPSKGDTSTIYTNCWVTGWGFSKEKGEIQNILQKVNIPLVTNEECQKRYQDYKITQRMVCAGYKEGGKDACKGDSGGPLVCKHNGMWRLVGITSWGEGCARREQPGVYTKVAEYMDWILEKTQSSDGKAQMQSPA

For “EAMHSFCAFKADDGPCRAAHPRWFFNIFTRQCEEFIYGGCEGNQNRFESLEECKKMCTRD (disulfide 7-57, 16-40, 32-53) [PEP-1]”, the “inhibitory activity in cerebral spinal fluid (CSF)” value (kallikrein; 30 μg iv, CSF drawn 30 or 60 min after administration) was “marked inhibitory activity”, the “inhibitory activity in CSF” value (kallikrein; 30 μg/mouse iv, thirty minutes after treatment) was “marked inhibitory activity” and the “crossing of the blood-brain barrier” value (kallikrein; intact blood-brain barrier, active form) was “can cross rapidly the intact blood-brain barrier”. The “affinity (Ki) for kallikrein relative to aprotinin” value (human plasma kallikrein) was 1000 times and the “affinity (Ki) for kallikrein relative to aprotinin” value (human plasma kallikrein; listed as DX-88) was “at least 1000 times”.
